The values that follow come from US20170306002A1 (UNITED STATES OF AMERICA AS REPESENTED BY THE SECRETARY …, published 2017).

In this test the target is recombinant CA/09 NA protein (baculovirus, with N-terminal His-tag, tetramerization domain and thrombin site) (human; influenza A virus …, UniProt P50552 336-380).
Chain of recombinant CA/09 NA protein (baculovirus, with N-terminal His-tag, tetramerization domain and thrombin site) (P50552 336-380): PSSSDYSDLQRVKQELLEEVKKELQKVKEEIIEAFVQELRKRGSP

B1: mAb CD6 (whole IgG) (antibody, V domains shown)
VH: QVKLQESGGGLVQPKGSLKLSCAASGFTFNTYAMNWVRQAPGKGLEWVARIRSKSNNYATFYADSVKDRFTISRDDSQSMLYLQMHNLKTDDTAMYYCVRPSIYYYASGYLDVWGAGTTVTVSS
VL: QIVLSQSPAILSASPGEKVTMTCRTSSSVSYMHWYQQKPGSSPKPWIYATSNLASGVPFRFSGSGSGTSYSLTISRVEAEDAATYYCQQWNSNPPTFGGGTKLEIKR
B1: the Kd is ~95 nM.

By Kd is commonly meant the equilibrium constant for the complex coming apart.
